These results are taken from publication PMC5342261.

In one experiment the target is CH98. The experiment can be described thus: ELISA. Background: In an ELISA, binding on a coated surface is turned into a signal by an enzyme label.
The next experiment deals with HJ16. The experiment is described as follows: ELISA.
The target of experiment [1] is VRC01. The experiment is described as follows: ELISA.
A further experiment has as its target B6. The experiment is described as follows: yeast display.
The target of the next experiment is PGV04. The experiment can be described thus: yeast display.
The target in experiment [2] is VRC01. The experiment is described as follows: yeast display.
Another experiment has as its target B12. The experiment is described as follows: yeast display.

In the case of AE.A244gp120 D368R, the results for the percent of parent in the experiment with CH98, with HJ16 and in the experiment with VRC01 [1] were 0%, 98% and 23%, respectively.

For AE.A244gp120 I371del; P363N, the percent of parent with CH98 is 0%; with HJ16, 80%.

Consider AE.A244gp120 N276A, for which the percent of parent was 0% with CH98 and 51% in the experiment with VRC01 [1].

AE.A244gp120 T278A: the results for the percent of parent with CH98, with HJ16 and with VRC01 [1] were 19%, 13% and 96%, respectively.

On to “B.YU2gp120 core (ΔV1, V2, V3 loops) D368R”, for which the values for the percent of parent in the experiment with B6, in the experiment with PGV04 and with VRC01 [2] were 53%, 7% and 13%, respectively.

Regarding “B.YU2gp120 core (ΔV1, V2, V3 loops) D397F”, the percent of parent in the experiment with B12 was 91%; in the experiment with B6, 94%; in the experiment with VRC01 [2], 73%.

Regarding “B.YU2gp120 core (ΔV1, V2, V3 loops) E269G”, the percent of parent was found to be 95% with B12, 75% with B6, 83% with PGV04 and 82% with VRC01 [2].

Take “B.YU2gp120 core (ΔV1, V2, V3 loops) G327R”: the percent of parent with B12 came to 90%; with B6 it was 95%; with PGV04 it was 89%; with VRC01 [2], 95%.

On to “B.YU2gp120 core (ΔV1, V2, V3 loops) G434K”, for which the percent of parent with B12 was 76%; with B6, 85%; in the experiment with PGV04 it was 85%; in the experiment with VRC01 [2] it was 85%.

In the case of “B.YU2gp120 core (ΔV1, V2, V3 loops) G459E”, the percent of parent was 105% with B12, 99% with B6, 8% with PGV04 and 28% with VRC01 [2].

Turning to “B.YU2gp120 core (ΔV1, V2, V3 loops) G473R”, the percent of parent with B12 turned out to be 113%; with B6, 78%; with PGV04, 17%; with VRC01 [2], 19%.

Turning to “B.YU2gp120 core (ΔV1, V2, V3 loops) H216Y”, the percent of parent with B12 stood at 108%; with B6 it was 99%; with PGV04, 96%; with VRC01 [2], 104%.

Consider “B.YU2gp120 core (ΔV1, V2, V3 loops) I467K”, for which the percent of parent was 51% with B12, 93% with B6, 43% in the experiment with PGV04 and 48% with VRC01 [2].

“B.YU2gp120 core (ΔV1, V2, V3 loops) K121T”: the percent of parent was 100% in the experiment with B12, 102% with B6, 73% with PGV04 and 80% with VRC01 [2].

Take “B.YU2gp120 core (ΔV1, V2, V3 loops) K231T”: the percent of parent with B12 worked out at 98%; with B6 it was 94%; with VRC01 [2], 74%.

With “B.YU2gp120 core (ΔV1, V2, V3 loops) K282V”, the percent of parent in the experiment with B12 was 51%; with B6, 61%; with PGV04, 74%; with VRC01 [2], 50%.

In the case of “B.YU2gp120 core (ΔV1, V2, V3 loops) K490S”, the percent of parent with B12 was 89%; with VRC01 [2] it was 75%.

Consider “B.YU2gp120 core (ΔV1, V2, V3 loops) L265R”, for which the percent of parent with B12 amounted to 91%; in the experiment with B6, 85%; with PGV04, 79%; with VRC01 [2], 88%.

As to “B.YU2gp120 core (ΔV1, V2, V3 loops) L405D”, the percent of parent with B12 worked out at 80%; with B6, 99%; with PGV04, 104%; with VRC01 [2], 109%.

In the case of “B.YU2gp120 core (ΔV1, V2, V3 loops) N197K”, the percent of parent in the experiment with B12 was determined as 89%; in the experiment with B6, 93%; with PGV04 it was 86%; with VRC01 [2], 86%.

With “B.YU2gp120 core (ΔV1, V2, V3 loops) Q337V”, the percent of parent in the experiment with B12 was found to be 88%; in the experiment with B6 it was 87%; in the experiment with PGV04 it was 89%; in the experiment with VRC01 [2], 91%.

With “B.YU2gp120 core (ΔV1, V2, V3 loops) Q344V”, the percent of parent in the experiment with B12 stood at 94%; in the experiment with B6, 96%; with PGV04 it was 79%; in the experiment with VRC01 [2], 82%.

On to “B.YU2gp120 core (ΔV1, V2, V3 loops) Q442V”, for which the percent of parent with B12 worked out at 72%; with B6, 95%; in the experiment with PGV04, 92%; with VRC01 [2], 97%.

As to “B.YU2gp120 core (ΔV1, V2, V3 loops) R403V”, the percent of parent with B12 was 76%; with B6 it was 96%; with PGV04 it was 94%; with VRC01 [2], 99%.

On to “B.YU2gp120 core (ΔV1, V2, V3 loops) R412V”, for which the percent of parent was determined as 87% with B12, 99% in the experiment with B6, 100% with PGV04 and 104% with VRC01 [2].

Turning to “B.YU2gp120 core (ΔV1, V2, V3 loops) R419G”, the values for the percent of parent with B12, with B6 and with PGV04 were 13%, 98% and 65%, respectively.

On to “B.YU2gp120 core (ΔV1, V2, V3 loops) R476V”, for which the percent of parent in the experiment with B12 is 97%; in the experiment with B6, 13%; with PGV04 it was 91%; with VRC01 [2], 62%.

As to “B.YU2gp120 core (ΔV1, V2, V3 loops) S365K”, the percent of parent is 28% with B12, 97% with B6, 8% with PGV04 and 31% with VRC01 [2].

In the case of “B.YU2gp120 core (ΔV1, V2, V3 loops) S446K”, the percent of parent with B12 is 113%; with B6, 100%; with PGV04, 104%; with VRC01 [2] it was 108%.

With “B.YU2gp120 core (ΔV1, V2, V3 loops) T240K”, the percent of parent amounted to 101% with B12, 95% with B6, 88% with PGV04 and 92% with VRC01 [2].

For the substance “B.YU2gp120 core (ΔV1, V2, V3 loops) T278K”, the percent of parent with B12 worked out at 89%; with B6, 98%; with PGV04 it was 122%; in the experiment with VRC01 [2], 196%.

On to “B.YU2gp120 core (ΔV1, V2, V3 loops) T455E”, for which the percent of parent amounted to 14% with B12, 92% with B6, 31% with PGV04 and 49% with VRC01 [2].

On to “B.YU2gp120 core (ΔV1, V2, V3 loops) V200K”, for which the percent of parent was 94% with B12, 90% with B6, 96% in the experiment with PGV04 and 99% with VRC01 [2].
